Consider one molecule from CN112279916A (DINGFU BIOTARGET CO LTD, dated 2021).

This assay addresses T1, hIL13RA1-EGFP (细胞表面hIL13RA1, HEK293细胞) (human, UniProt P78552 22-427).
T1 construct: also called 人IL13RA1; not shown: enhanced green fluorescent protein EGFP, UniProt C5MKY7
T1 sequence (looked up): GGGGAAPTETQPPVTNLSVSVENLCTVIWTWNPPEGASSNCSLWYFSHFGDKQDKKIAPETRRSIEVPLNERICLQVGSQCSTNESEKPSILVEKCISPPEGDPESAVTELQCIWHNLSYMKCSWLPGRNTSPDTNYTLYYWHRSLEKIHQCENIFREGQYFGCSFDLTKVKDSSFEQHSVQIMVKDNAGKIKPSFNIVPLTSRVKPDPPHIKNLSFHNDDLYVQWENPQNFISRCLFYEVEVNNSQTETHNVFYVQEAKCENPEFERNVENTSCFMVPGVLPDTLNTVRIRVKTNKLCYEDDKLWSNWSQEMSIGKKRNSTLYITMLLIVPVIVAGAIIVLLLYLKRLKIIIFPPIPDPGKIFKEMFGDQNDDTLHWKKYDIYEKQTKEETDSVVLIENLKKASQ
Briefly: FACS on hIL13RA1-EGFP HEK293 cells, 2 μg antibody, secondary antibody anti-hIg-PE.

B1: anti-hIL13RA1 scFv抗体 (Fc fusion)
scFv: QVQLQQSGPGLVKPSQTLLITCAISGDSVSSNSAAWNWIRQSPSGSLEWLGRTYYRSKWYSHYAVSVTGRMTINSDSSKNQFSLQLDSVTPEDMAIYYCAREEVAGRGSFDFWGQGTLVTVSSGILGSGGGGSGGGGSGGGGSDIQLTQSPSFLSASVGDRVTITCRASQSISKNLVWYQQKPGKAPKLLIYSASTLQSGVPSRFSGSGSGTDFTLTISSLQPEDCALYFCQQAHSFPVTFGQGTRLEIK
notes: also called anti-IL13RA1 35#; IL13RA1抗体; not shown: human IgG1-Fc domain, UniProt P01857 residues 104-330
As to B1, the binding result is recorded as “binds”.
